# T1: heavy chain of B-domain deleted human Factor VIII (A1-A2 domains) (human, UniProt P00451 20-1667, oligosaccharide observed linked to Asn 239)
# T1 construct: Residues 17-43, 334-376 and 714-754 were not modeled; also called A1-a1-A2-a2
# T1 sequence (heavy): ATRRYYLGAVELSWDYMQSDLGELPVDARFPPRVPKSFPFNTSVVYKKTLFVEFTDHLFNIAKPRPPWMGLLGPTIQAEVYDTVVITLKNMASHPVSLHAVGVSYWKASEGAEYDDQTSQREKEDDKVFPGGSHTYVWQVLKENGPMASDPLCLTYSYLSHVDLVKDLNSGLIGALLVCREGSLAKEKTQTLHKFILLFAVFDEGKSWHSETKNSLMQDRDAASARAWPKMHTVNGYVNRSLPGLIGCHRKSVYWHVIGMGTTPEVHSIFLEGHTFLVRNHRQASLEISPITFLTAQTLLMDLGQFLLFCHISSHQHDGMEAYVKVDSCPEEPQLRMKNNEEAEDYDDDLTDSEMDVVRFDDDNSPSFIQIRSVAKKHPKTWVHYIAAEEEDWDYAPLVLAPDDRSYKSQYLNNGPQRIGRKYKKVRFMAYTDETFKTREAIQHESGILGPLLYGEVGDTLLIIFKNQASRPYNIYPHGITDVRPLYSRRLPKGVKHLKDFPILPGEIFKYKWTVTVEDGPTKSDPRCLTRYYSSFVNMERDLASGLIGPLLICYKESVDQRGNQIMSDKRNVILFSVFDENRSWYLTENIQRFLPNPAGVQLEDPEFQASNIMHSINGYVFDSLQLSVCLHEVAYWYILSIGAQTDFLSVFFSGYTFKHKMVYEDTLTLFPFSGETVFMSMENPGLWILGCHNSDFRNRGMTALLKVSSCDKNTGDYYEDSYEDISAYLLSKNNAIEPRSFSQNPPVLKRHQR
# Experiments:
# [1] = biological target: T1, heavy chain of B-domain deleted human …; test: X-ray crystal structure
# Source text: X-ray diffraction data of Factor VIII crystals were collected at the NE-CAT synchrotron beamline ID-24 of the Advanced Photon Source (APS) at Argonne National Laboratory. All xray data were processed using program HKL2000 (Otwinowski, Z. & Minor, W. (1997) in Methods Enzymol (Academic Press, New York), Vol. 276, pp. 307-326) (Table 1).
# For structural determination using the molecular replacement method, a homology structure model of Factor VIII was constructed from the known primary sequence of Factor VIII (McCoy, A. J. (2007) Acta Crystallogr D Biol Crystallogr 63, 32-41). Using the template structures of Factor Vai (PDBID: […]) (Sandberg, H., Almstedt, A., Brandt, J., Castro, V. M., Gray, E., Holmquist, L., Lewin, M., Oswaldsson, U., Mikaelsson, M., Jankowski, M. A., Bond, M. & Scoble, H. A. (2001) Semin Hematol 38, 4-12) and ceruloplasmin (PDBID: 1KCW) (Adams, T. E., Hockin, M. F., Mann, K. G. & Everse, S. J. (2004) Proc Natl Acad Sci U SA 101, 8918-23), the structure of the A1 and A2 domains of Factor VIII were initially determined with AMoRe (Murshudov, G. N., Vagin, A. A. & Dodson, E. J. (1997) Acta Crystallogr D Biol Crystallogr 53, 240-55) using the structure of the A1 and A2 domains of the homology model. This yielded clear rotation function and translation function solutions. […]
# [2] = biological target: the molecule itself; test: X-ray crystal structure, crystal contact
binding result [1],Binder,binding result [2]
binds,"light chain of B-domain deleted human Factor VIII (A3-C1-C2 domains) (other, oligosaccharides observed linked to Asn 1810 and Asn 2118, Residues 1649-1690 and 1714-1724 were not modeled; also called a3-A3-C1-C2) light: EITRTTLQSDQEEIDYDDTISVEMKKEDFDIYDEDENQSPRSFQKKTRHYFIAAVERLWDYGMSSSPHVLRNRAQSGSVPQFKKVVFQEFTDGSFTQPLYRGELNEHLGLLGPYIRAEVEDNIMVTFRNQASRPYSFYSSLISYEEDQRQGAEPRKNFVKPNETKTYFWKVQHHMAPTKDEFDCKAWAYFSDVDLEKDVHSGLIGPLLVCHTNTLNPAHGRQVTVQEFALFLTIFDETKSWYFTENMERNCRAPCNIQMEDPTFKENYRFHAINGYIMDTLPGLVMAQDQRIRWYLLSMGSNENIHSIHFSGHVFTVRKKEEYKMALYNLYPGVFETVEMLPSKAGIWRVECLIGEHLHAGMSTLFLVYSNKCQTPLGMASGHIRDFQITASGQYGQWAPKLARLHYSGSINAWSTKEPFSWIKVDLLAPMIIHGIKTQGARQKFSSLYISQFIIMYSLDGKKWQTYRGNSTGTLMVFFGNVDSSGIKHNIFNPPIIARYIRLHPTHYSIRSTLRMELMGCDLNSCSMPLGMESKAISDAQITASSYFTNMFATWSPSKARLHLQGRSNAWRPQVNNPKEWLQVDFQKTMKVTGVTTQGVKSLLTSMYVKEFLISSSQDGHQWTLFFQNGKVKVFQGNQDSFTPVVNSLDPPLLTRYLRIHPQSWVHQIALRMEVLGCEAQDLY",–
–,"B-domain deleted human Factor VIII (other, oligosaccharides observed linked to Asn 1810 and Asn 2118; oligosaccharide observed linked to Asn 239, Expressed in CHO cells and crystallised; heterodimer of heavy and light chain with 2 Cu2+, 1 Ca2+ and three carbohydrate moieties; also called B-domain deleted recombinant Factor VIII (Wyeth); B domain-deleted FVIII) heavy: ATRRYYLGAVELSWDYMQSDLGELPVDARFPPRVPKSFPFNTSVVYKKTLFVEFTDHLFNIAKPRPPWMGLLGPTIQAEVYDTVVITLKNMASHPVSLHAVGVSYWKASEGAEYDDQTSQREKEDDKVFPGGSHTYVWQVLKENGPMASDPLCLTYSYLSHVDLVKDLNSGLIGALLVCREGSLAKEKTQTLHKFILLFAVFDEGKSWHSETKNSLMQDRDAASARAWPKMHTVNGYVNRSLPGLIGCHRKSVYWHVIGMGTTPEVHSIFLEGHTFLVRNHRQASLEISPITFLTAQTLLMDLGQFLLFCHISSHQHDGMEAYVKVDSCPEEPQLRMKNNEEAEDYDDDLTDSEMDVVRFDDDNSPSFIQIRSVAKKHPKTWVHYIAAEEEDWDYAPLVLAPDDRSYKSQYLNNGPQRIGRKYKKVRFMAYTDETFKTREAIQHESGILGPLLYGEVGDTLLIIFKNQASRPYNIYPHGITDVRPLYSRRLPKGVKHLKDFPILPGEIFKYKWTVTVEDGPTKSDPRCLTRYYSSFVNMERDLASGLIGPLLICYKESVDQRGNQIMSDKRNVILFSVFDENRSWYLTENIQRFLPNPAGVQLEDPEFQASNIMHSINGYVFDSLQLSVCLHEVAYWYILSIGAQTDFLSVFFSGYTFKHKMVYEDTLTLFPFSGETVFMSMENPGLWILGCHNSDFRNRGMTALLKVSSCDKNTGDYYEDSYEDISAYLLSKNNAIEPRSFSQNPPVLKRHQR light: EITRTTLQSDQEEIDYDDTISVEMKKEDFDIYDEDENQSPRSFQKKTRHYFIAAVERLWDYGMSSSPHVLRNRAQSGSVPQFKKVVFQEFTDGSFTQPLYRGELNEHLGLLGPYIRAEVEDNIMVTFRNQASRPYSFYSSLISYEEDQRQGAEPRKNFVKPNETKTYFWKVQHHMAPTKDEFDCKAWAYFSDVDLEKDVHSGLIGPLLVCHTNTLNPAHGRQVTVQEFALFLTIFDETKSWYFTENMERNCRAPCNIQMEDPTFKENYRFHAINGYIMDTLPGLVMAQDQRIRWYLLSMGSNENIHSIHFSGHVFTVRKKEEYKMALYNLYPGVFETVEMLPSKAGIWRVECLIGEHLHAGMSTLFLVYSNKCQTPLGMASGHIRDFQITASGQYGQWAPKLARLHYSGSINAWSTKEPFSWIKVDLLAPMIIHGIKTQGARQKFSSLYISQFIIMYSLDGKKWQTYRGNSTGTLMVFFGNVDSSGIKHNIFNPPIIARYIRLHPTHYSIRSTLRMELMGCDLNSCSMPLGMESKAISDAQITASSYFTNMFATWSPSKARLHLQGRSNAWRPQVNNPKEWLQVDFQKTMKVTGVTTQGVKSLLTSMYVKEFLISSSQDGHQWTLFFQNGKVKVFQGNQDSFTPVVNSLDPPLLTRYLRIHPQSWVHQIALRMEVLGCEAQDLY",binds

# — patent US20090271163A1 (published 2009)
